# Assay results taken from paper PMC3320602.
# Molecular target: HIV-1 JR-FL envelope glycoprotein (gp120 and gp41) on GFP-labelled Env-pseudotyped particles (HIV-1 isolate JR-FL)
substance,measurement,value
tetrameric CD4-IgG2 molecule (PRO 542) (from UniProt P01730 26-396; P01730 26-396) (Fc fusion),"IC50 of inhibition of JR-FL infection of TZM-bl cells (luciferase), cell-cell transmission from infected PBMC against cell-free virus; the pair blocked is m1+m3",40 fold
